B1: POU domain, class 3, transcription factor 2, residues 262 to 338; numbered along this chain, P20265 (parent)
chain: EDTPTSDDLEQFAKQFKQRRIKLGFTQADVGLALGTLYGNVFSQTTICRFEALQLSFKNMCKLKPLLNKWLEEADSS

± gives the uncertainty stated by the source.

Variants of B1 are the subject of the data set. The data set can be described thus: abundance fitness (aPCA) (normalised: wild type 0, dead -1); higher = more abundant; growth selection in yeast, the domain comes from the species named. The settings on record: Homo sapiens.
Consider EDTPTSDDLEQFAKQFKQRRIKLGFTQADVGLALGTLYGNVFSPTTICRFEALQLSFKNMCKLKPLLNKWLEEADSS, for which the abundance fitness is 0.023 ± 0.044.

Regarding EDTPTSDDLEQFAKQFKQRRIKLGFTQADVGLALGTLYGNVFSSTTICRFEALQLSFKNMCKLKPLLNKWLEEADSS, the abundance fitness was determined as 0.008 ± 0.035. With EDTPTSDDLEQFAKQFKQRRIKLGFTQADVGLALGTLYGNVFSLTTICRFEALQLSFKNMCKLKPLLNKWLEEADSS, the abundance fitness is -0.248 ± 0.039. As for EDTPTSDDLEQFAKQFKQRRIKLGFTQADVGLALGTLYGNVFSFTTICRFEALQLSFKNMCKLKPLLNKWLEEADSS, the abundance fitness was -0.373 ± 0.11. The figure for EDTPTSDDLEQFAKQFKQRRIKLGFTQADVGLALGTLYGNVFSRTTICRFEALQLSFKNMCKLKPLLNKWLEEADSS is -0.066 ± 0.028; for EDTPTSDDLEQFAKQFKQRRIKLGFTQADVGLALGTLYGNVFSGTTICRFEALQLSFKNMCKLKPLLNKWLEEADSS it is 0.019 ± 0.025; for EDTPTSDDLEQFAKQFKQRRIKLGFTQADVGLALGTLYGNVFSHTTICRFEALQLSFKNMCKLKPLLNKWLEEADSS it is -0.031 ± 0.069. Next, EDTPTSDDLEQFAKQFKQRRIKLGFTQADVGLALGTLYGNVFSATTICRFEALQLSFKNMCKLKPLLNKWLEEADSS: 0.033 ± 0.031; EDTPTSDDLEQFAKQFKQRRIKLGFTQADVGLALGTLYGNVFSTTTICRFEALQLSFKNMCKLKPLLNKWLEEADSS: -0.018 ± 0.039. The figure for EDTPTSDDLEQFAKQFKQRRIKLGFTQADVGLALGTLYGNVFSKTTICRFEALQLSFKNMCKLKPLLNKWLEEADSS is -0.009 ± 0.042; for EDTPTSDDLEQFAKQFKQRRIKLGFTQADVGLALGTLYGNVFSWTTICRFEALQLSFKNMCKLKPLLNKWLEEADSS it is -0.399 ± 0.042. Regarding EDTPTSDDLEQFAKQFKQRRIKLGFTQADVGLALGTLYGNVFSVTTICRFEALQLSFKNMCKLKPLLNKWLEEADSS, the abundance fitness was -0.098 ± 0.03. Next, EDTPTSDDLEQFAKQFKQRRIKLGFTQADVGLALGTLYGNVFSDTTICRFEALQLSFKNMCKLKPLLNKWLEEADSS: -0.018 ± 0.042. The figure for EDTPTSDDLEQFAKQFKQRRIKLGFTQADVGLALGTLYGNVRSQTTICRFEALQLSFKNMCKLKPLLNKWLEEADSS is -0.292 ± 0.032. Consider EDTPTSDDLEQFAKQFKQRRIKLGFTQADVGLALGTLYGNVQSQTTICRFEALQLSFKNMCKLKPLLNKWLEEADSS, for which the abundance fitness turned out to be 0.072 ± 0.042. Turning to EDTPTSDDLEQFAKQFKQRRIKLGFTQADVGLALGTLYGNVPSQTTICRFEALQLSFKNMCKLKPLLNKWLEEADSS, the abundance fitness is -0.368 ± 0.062. The figure for EDTPTSDDLEQFAKQFKQRRIKLGFTQADVGLALGTLYGNVNSQTTICRFEALQLSFKNMCKLKPLLNKWLEEADSS is -0.582 ± 0.15; for EDTPTSDDLEQFAKQFKQRRIKLGFTQADVGLALGTLYGNVTSQTTICRFEALQLSFKNMCKLKPLLNKWLEEADSS it is -0.061 ± 0.042. On to EDTPTSDDLEQFAKQFKQRRIKLGFTQADVGLALGTLYGNVMSQTTICRFEALQLSFKNMCKLKPLLNKWLEEADSS, for which the abundance fitness was -0.004 ± 0.047. Turning to EDTPTSDDLEQFAKQFKQRRIKLGFTQADVGLALGTLYGNVSSQTTICRFEALQLSFKNMCKLKPLLNKWLEEADSS, the abundance fitness is -0.268 ± 0.045.

In the case of EDTPTSDDLEQFAKQFKQRRIKLGFTQADVGLALGTLYGNVYSQTTICRFEALQLSFKNMCKLKPLLNKWLEEADSS, the abundance fitness came to 0.056 ± 0.06. Consider EDTPTSDDLEQFAKQFKQRRIKLGFTQADVGLALGTLYGNVLSQTTICRFEALQLSFKNMCKLKPLLNKWLEEADSS, for which the abundance fitness worked out at 0.053 ± 0.034. As to EDTPTSDDLEQFAKQFKQRRIKLGFTQADVGLALGTLYGNVFSQETICRFEALQLSFKNMCKLKPLLNKWLEEADSS, the abundance fitness came out at 0.143 ± 0.035. Consider EDTPTSDDLEQFAKQFKQRRIKLGFTQADVGLALGTLYGNVFSQLTICRFEALQLSFKNMCKLKPLLNKWLEEADSS, for which the abundance fitness is -0.127 ± 0.033. On to EDTPTSDDLEQFAKQFKQRRIKLGFTQADVGLALGTLYGNVFSQRTICRFEALQLSFKNMCKLKPLLNKWLEEADSS, for which the abundance fitness was -0.005 ± 0.025. With EDTPTSDDLEQFAKQFKQRRIKLGFTQADVGLALGTLYGNVFSQGTICRFEALQLSFKNMCKLKPLLNKWLEEADSS, the abundance fitness was -0.097 ± 0.026.

In the case of EDTPTSDDLEQFAKQFKQRRIKLGFTQADVGLALGTLYGNVFSQITICRFEALQLSFKNMCKLKPLLNKWLEEADSS, the abundance fitness was -0.213 ± 0.057. In the case of EDTPTSDDLEQFAKQFKQRRIKLGFTQADVGLALGTLYGNVFSQPTICRFEALQLSFKNMCKLKPLLNKWLEEADSS, the abundance fitness is -0.261 ± 0.045. For the variant EDTPTSDDLEQFAKQFKQRRIKLGFTQADVGLALGTLYGNVFSQKTICRFEALQLSFKNMCKLKPLLNKWLEEADSS, the abundance fitness came to 0.053 ± 0.038. The figure for EDTPTSDDLEQFAKQFKQRRIKLGFTQADVGLALGTLYGNVFSQNTICRFEALQLSFKNMCKLKPLLNKWLEEADSS is -0.08 ± 0.064; for EDTPTSDDLEQFAKQFKQRRIKLGFTQADVGLALGTLYGNVFSQYTICRFEALQLSFKNMCKLKPLLNKWLEEADSS it is -0.338 ± 0.097. As to EDTPTSDDLEQFAKQFKQRRIKLGFTQADVGLALGTLYGNVFSQFTICRFEALQLSFKNMCKLKPLLNKWLEEADSS, the abundance fitness was -0.104 ± 0.063. The figure for EDTPTSDDLEQFAKQFKQRRIKLGFTQADVGLALGTLYGNVFSQHTICRFEALQLSFKNMCKLKPLLNKWLEEADSS is -0.066 ± 0.062; for EDTPTSDDLEQFAKQFKQRRIKLGFTQADVGLALGTLYGNVFSQSTICRFEALQLSFKNMCKLKPLLNKWLEEADSS it is -0.013 ± 0.032. The figure for EDTPTSDDLEQFAKQFKQRRIKLGFTQADVGLALGTLYGNVFSQCTICRFEALQLSFKNMCKLKPLLNKWLEEADSS is -0.163 ± 0.047; for EDTPTSDDLEQFAKQFKQRRIKLGFTQADVGLALGTLYGNVFSQQTICRFEALQLSFKNMCKLKPLLNKWLEEADSS it is 0.005 ± 0.039.
